From patent US20230120018A1, “PREDICTION OF PEPTIDE CLEAVAGE IN POLYPEPTIDES THROUGH PHYSICS-BASED SIMULATIONS” (Genentech, Inc., priority 2020, published 2023)

B1: otlertuzumab (antibody, chains of the INN, looked up, V domains shown)
VH: EVQLVQSGAEVKKPGESLKISCKGSGYSFTGYNMNWVRQMPGKGLEWMGNIDPYYGGTTYNRKFKGQVTISADKSISTAYLQWSSLKASDTAMYYCARSVGPFDSWGQGTLVTVSS
VL: EIVLTQSPATLSLSPGERATLSCRASENVYSYLAWYQQKPGQAPRLLIYFAKTLAEGIPARFSGSGSGTDFTLTISSLEPEDFAVYYCQHHSDNPWTFGQGTKVEIK

Key:
[1] = Asn-Pro hydrolysis in unstructured linear peptide mimics of CDR-L3 at accelerated temperature; format: physicochemical; conditions: pH 7.4, 90° C.
Procedure: To examine the effect of antibody structure on the rate of Asn-Pro hydrolysis, thermal stress was performed on unstructured, linear peptides representing the CDR-L3 sequence of Fab1 and Mab3. Since it had been previously shown that the rate of hydrolysis in unstructured peptides incubated at 37° C. was slow, accelerated temperature conditions (90 and 70° C.) were performed and the temperature dependence extrapolated to calculate the rate at 37° C. Very slow rates of peptide hydrolysis (Table 2), with half-lives calculated for 37° C. of greater than 2000 days, were observed. As expected, the rate of hydrolysis was slower, by about 3-fold, for incubations performed in pH 5 buffer.

[2] = Neutral pH 37 C stability of commercial antibodies, fragmentation by mass spectroscopy and CE-SDS; format: physicochemical; conditions: PBS pH 7.4, up to 4 weeks at 37° C.
Procedure: In addition to the data shown for Mab5 in Table 1 and FIG. 9, neutral pH, 37 C stability data was generated for all except muromonab, teplizumab, tovetumab, and visilizumab. Antibodies formulated in PBS, pH 7.4, were incubated for up to 4 weeks at 37° C. and evidence for fragmentation was obtained by mass spectroscopy and capillary electrophoresis sodium dodecyl sulfate (CE-SDS) for both intact and reduced samples.

Molecule	% Pro peak formation/day at 90° C. [1]	Light chain fragment observed? (hydrolysis at Asn-Pro in CDR-L3) [2]
Fab1: peptide mimic of Fab1 CDR-L3 segment, QQWSSNPWTFGQ	1.0 % Pro peak formation/day	–
Fab2: peptide mimic of Fab2 CDR-L3 segment, QQGYGNPFTFGQ	2.9 % Pro peak formation/day	–
Mab3: peptide mimic of Mab3 CDR-L3 segment, QQWSSNPYTFGQ	2.9 % Pro peak formation/day	–
Mab4: peptide mimic of Mab4 CDR-L3 segment, QQGINNPLTFGQ	1.9 % Pro peak formation/day	–
veltuzumab [reference compound]	–	detected and Yes
B1	–	not and No
